The source of these data is US20210275641A1 (SYNTHEKINE, published 2021).

T1: human high affinity trimeric IL-2 receptor (CD25/CD122/CD132) (human, UniProt P01589 22-272; P14784 27-551; P31785 23-369)
T1 sequence 1: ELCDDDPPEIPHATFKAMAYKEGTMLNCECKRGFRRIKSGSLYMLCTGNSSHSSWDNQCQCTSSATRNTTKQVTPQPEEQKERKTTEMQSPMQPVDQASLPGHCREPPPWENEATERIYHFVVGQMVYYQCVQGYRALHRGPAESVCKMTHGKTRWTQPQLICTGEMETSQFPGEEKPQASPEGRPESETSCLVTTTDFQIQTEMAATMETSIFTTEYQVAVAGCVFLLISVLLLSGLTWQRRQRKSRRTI
T1 sequence 2: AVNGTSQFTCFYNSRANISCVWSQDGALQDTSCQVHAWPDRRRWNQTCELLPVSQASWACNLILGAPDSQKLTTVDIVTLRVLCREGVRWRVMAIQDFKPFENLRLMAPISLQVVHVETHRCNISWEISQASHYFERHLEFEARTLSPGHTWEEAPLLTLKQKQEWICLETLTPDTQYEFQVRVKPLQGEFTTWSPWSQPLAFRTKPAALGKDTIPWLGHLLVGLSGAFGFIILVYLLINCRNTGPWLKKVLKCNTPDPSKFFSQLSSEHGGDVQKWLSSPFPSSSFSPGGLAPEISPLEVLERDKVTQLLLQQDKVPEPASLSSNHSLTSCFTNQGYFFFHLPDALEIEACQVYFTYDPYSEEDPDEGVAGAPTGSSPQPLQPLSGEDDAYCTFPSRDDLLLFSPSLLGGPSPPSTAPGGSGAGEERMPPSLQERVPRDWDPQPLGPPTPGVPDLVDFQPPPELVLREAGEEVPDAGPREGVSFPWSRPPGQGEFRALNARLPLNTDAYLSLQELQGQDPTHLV
T1 sequence 3: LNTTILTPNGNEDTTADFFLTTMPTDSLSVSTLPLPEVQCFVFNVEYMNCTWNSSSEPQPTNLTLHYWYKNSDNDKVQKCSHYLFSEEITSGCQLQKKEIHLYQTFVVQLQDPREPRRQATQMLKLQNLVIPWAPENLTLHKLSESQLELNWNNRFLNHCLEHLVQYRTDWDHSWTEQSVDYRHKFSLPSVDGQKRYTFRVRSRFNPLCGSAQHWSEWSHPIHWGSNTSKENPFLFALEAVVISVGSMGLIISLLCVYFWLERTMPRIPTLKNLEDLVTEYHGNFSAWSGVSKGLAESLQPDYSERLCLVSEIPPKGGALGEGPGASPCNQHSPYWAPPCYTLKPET

B1: hIL2 mutein REH (L18R, Q22E, Q126H) (ligand)
chain: APTSSSTKKTQLQLEHLRLDLEMILNGINNYKNPKLTRMLTFKFYMPKKATELKHLQCLEEELKPLEEVLNLAQSKNFHLRPRDLISNINVIVLELKGSETTFMCEYADETATIVEFLNRWITFCHSIISTLT
B2: SEH (ligand)
cytokine: B1 chain with R18S
B3: WEH (ligand)
cytokine: B1 chain with R18W
B4: HEH (ligand)
cytokine: B1 chain with R18H
B5: VEH (ligand)
cytokine: B1 chain with R18V
B6: IEH (ligand)
cytokine: B1 chain with R18I
B7: EEH (ligand)
cytokine: B1 chain with R18E
B8: DEH (ligand)
cytokine: B1 chain with R18D
B9: NEH (ligand)
cytokine: B1 chain with R18N
B10: TEH (ligand)
cytokine: B1 chain with R18T
B11: FEH (ligand)
cytokine: B1 chain with R18F
B12: KEH (ligand)
cytokine: B1 chain with R18K
B13: QEH (ligand)
cytokine: B1 chain with R18Q
B14: YEH (ligand)
cytokine: B1 chain with R18Y

Numbering of substitutions follows the chain as printed. Names and notes keep the numbering of the source.

The experiment has as its target T1, human high affinity trimeric IL-2 …. The experiment can be described thus: cell-based or functional assay.
Turning to B1, the “pSTAT5 ratio YT CD25/YT, dilution factor 2, lower table” value is 0.8; the “pSTAT5 ratio YT CD25/YT, dilution factor 2, upper table” value came out at 0.9; the “pSTAT5 ratio YT CD25/YT, dilution factor 4, lower table” value came out at 0.9; the “pSTAT5 ratio YT CD25/YT, dilution factor 4, upper table” value stood at 1. The “pSTAT5 ratio YT CD25/YT, dilution factor 8, lower table” value worked out at 1; the “pSTAT5 ratio YT CD25/YT, dilution factor 8, upper table” value came out at 1.1; the “pSTAT5 ratio YT CD25/YT, dilution factor 16, lower table” value was determined as 1.3; the “pSTAT5 ratio YT CD25/YT, dilution factor 16, upper table” value came out at 1.3. In addition, the “pSTAT5 ratio YT CD25/YT, dilution factor 32, lower table” value stood at 1.6; the “pSTAT5 ratio YT CD25/YT, dilution factor 32, upper table” value was 1.8; the “pSTAT5 ratio YT CD25/YT, dilution factor 64, lower table” value came out at 2.4; the “pSTAT5 ratio YT CD25/YT, dilution factor 64, upper table” value is 2.9. Moreover, the “pSTAT5 ratio YT CD25/YT, dilution factor 128, lower table” value was 3.9 and the “pSTAT5 ratio YT CD25/YT, dilution factor 128, upper table” value was 4.7.

Regarding B2, the “pSTAT5 ratio YT CD25/YT, dilution factor 2, upper table” value was determined as 1.2; the “pSTAT5 ratio YT CD25/YT, dilution factor 4, upper table” value turned out to be 1.5; the “pSTAT5 ratio YT CD25/YT, dilution factor 8, upper table” value worked out at 2.5; the “pSTAT5 ratio YT CD25/YT, dilution factor 16, upper table” value amounted to 4. In addition, the “pSTAT5 ratio YT CD25/YT, dilution factor 32, upper table” value was 7.8; the “pSTAT5 ratio YT CD25/YT, dilution factor 64, upper table” value is 11.4; the “pSTAT5 ratio YT CD25/YT, dilution factor 128, upper table” value was determined as 15.1.

For B3, the “pSTAT5 ratio YT CD25/YT, dilution factor 2, upper table” value was found to be 1.1; the “pSTAT5 ratio YT CD25/YT, dilution factor 4, upper table” value came out at 1.4; the “pSTAT5 ratio YT CD25/YT, dilution factor 8, upper table” value was determined as 1.5; the “pSTAT5 ratio YT CD25/YT, dilution factor 16, upper table” value was found to be 2.2. The “pSTAT5 ratio YT CD25/YT, dilution factor 32, upper table” value stood at 3.9; the “pSTAT5 ratio YT CD25/YT, dilution factor 64, upper table” value was 6.4; the “pSTAT5 ratio YT CD25/YT, dilution factor 128, upper table” value stood at 10.

With B4, the “pSTAT5 ratio YT CD25/YT, dilution factor 2, lower table” value came to 1; the “pSTAT5 ratio YT CD25/YT, dilution factor 4, lower table” value worked out at 1.2; the “pSTAT5 ratio YT CD25/YT, dilution factor 8, lower table” value came to 1.8; the “pSTAT5 ratio YT CD25/YT, dilution factor 16, lower table” value worked out at 3.1. For the same molecule, the “pSTAT5 ratio YT CD25/YT, dilution factor 32, lower table” value stood at 5.6; the “pSTAT5 ratio YT CD25/YT, dilution factor 64, lower table” value turned out to be 8.3; the “pSTAT5 ratio YT CD25/YT, dilution factor 128, lower table” value is 11.8.

B5: the “pSTAT5 ratio YT CD25/YT, dilution factor 2, upper table” value is 1.2; the “pSTAT5 ratio YT CD25/YT, dilution factor 4, upper table” value came out at 1.6; the “pSTAT5 ratio YT CD25/YT, dilution factor 8, upper table” value amounted to 2.4; the “pSTAT5 ratio YT CD25/YT, dilution factor 16, upper table” value came to 3.6. In addition, the “pSTAT5 ratio YT CD25/YT, dilution factor 32, upper table” value was 6.3; the “pSTAT5 ratio YT CD25/YT, dilution factor 64, upper table” value was 10.9; the “pSTAT5 ratio YT CD25/YT, dilution factor 128, upper table” value was found to be 14.8.

Turning to B6, the “pSTAT5 ratio YT CD25/YT, dilution factor 2, upper table” value amounted to 1.2; the “pSTAT5 ratio YT CD25/YT, dilution factor 4, upper table” value was found to be 1.4; the “pSTAT5 ratio YT CD25/YT, dilution factor 8, upper table” value turned out to be 1.6; the “pSTAT5 ratio YT CD25/YT, dilution factor 16, upper table” value came to 2.6. Further, the “pSTAT5 ratio YT CD25/YT, dilution factor 32, upper table” value amounted to 4.6; the “pSTAT5 ratio YT CD25/YT, dilution factor 64, upper table” value amounted to 7.2; the “pSTAT5 ratio YT CD25/YT, dilution factor 128, upper table” value stood at 10.9.

As to B7, the “pSTAT5 ratio YT CD25/YT, dilution factor 2, upper table” value worked out at 1.4; the “pSTAT5 ratio YT CD25/YT, dilution factor 4, upper table” value was found to be 2.3; the “pSTAT5 ratio YT CD25/YT, dilution factor 8, upper table” value came out at 4.8; the “pSTAT5 ratio YT CD25/YT, dilution factor 16, upper table” value worked out at 8.4. Further, the “pSTAT5 ratio YT CD25/YT, dilution factor 32, upper table” value is 14.7; the “pSTAT5 ratio YT CD25/YT, dilution factor 64, upper table” value is 16.9; the “pSTAT5 ratio YT CD25/YT, dilution factor 128, upper table” value worked out at 17.

Consider B8, for which the “pSTAT5 ratio YT CD25/YT, dilution factor 2, lower table” value was 0.9; the “pSTAT5 ratio YT CD25/YT, dilution factor 4, lower table” value was found to be 2; the “pSTAT5 ratio YT CD25/YT, dilution factor 8, lower table” value stood at 4.2; the “pSTAT5 ratio YT CD25/YT, dilution factor 16, lower table” value stood at 7.5. Moreover, the “pSTAT5 ratio YT CD25/YT, dilution factor 32, lower table” value turned out to be 8.2; the “pSTAT5 ratio YT CD25/YT, dilution factor 64, lower table” value was determined as 10.6; the “pSTAT5 ratio YT CD25/YT, dilution factor 128, lower table” value turned out to be 9.9.

In the case of B9, the “pSTAT5 ratio YT CD25/YT, dilution factor 2, lower table” value was 0.9; the “pSTAT5 ratio YT CD25/YT, dilution factor 4, lower table” value is 1.1; the “pSTAT5 ratio YT CD25/YT, dilution factor 8, lower table” value was determined as 1.8; the “pSTAT5 ratio YT CD25/YT, dilution factor 16, lower table” value is 2.6. The “pSTAT5 ratio YT CD25/YT, dilution factor 32, lower table” value was determined as 5.1; the “pSTAT5 ratio YT CD25/YT, dilution factor 64, lower table” value stood at 7.9; the “pSTAT5 ratio YT CD25/YT, dilution factor 128, lower table” value came out at 11.9.

For the molecule B10, the “pSTAT5 ratio YT CD25/YT, dilution factor 2, lower table” value was found to be 0.5; the “pSTAT5 ratio YT CD25/YT, dilution factor 4, lower table” value amounted to 0.6; the “pSTAT5 ratio YT CD25/YT, dilution factor 8, lower table” value was 0.9; the “pSTAT5 ratio YT CD25/YT, dilution factor 16, lower table” value came to 1.3. In addition, the “pSTAT5 ratio YT CD25/YT, dilution factor 32, lower table” value worked out at 1.9; the “pSTAT5 ratio YT CD25/YT, dilution factor 64, lower table” value turned out to be 3.3; the “pSTAT5 ratio YT CD25/YT, dilution factor 128, lower table” value came out at 5.2.

As to B11, the “pSTAT5 ratio YT CD25/YT, dilution factor 2, upper table” value turned out to be 0.9; the “pSTAT5 ratio YT CD25/YT, dilution factor 4, upper table” value came out at 1.2; the “pSTAT5 ratio YT CD25/YT, dilution factor 8, upper table” value was found to be 1.3; the “pSTAT5 ratio YT CD25/YT, dilution factor 16, upper table” value is 1.4. Also, the “pSTAT5 ratio YT CD25/YT, dilution factor 32, upper table” value was found to be 1.7; the “pSTAT5 ratio YT CD25/YT, dilution factor 64, upper table” value was 2.9; the “pSTAT5 ratio YT CD25/YT, dilution factor 128, upper table” value was 4.7.

With B12, the “pSTAT5 ratio YT CD25/YT, dilution factor 2, upper table” value stood at 1.1; the “pSTAT5 ratio YT CD25/YT, dilution factor 4, upper table” value amounted to 1; the “pSTAT5 ratio YT CD25/YT, dilution factor 8, upper table” value amounted to 1.1; the “pSTAT5 ratio YT CD25/YT, dilution factor 16, upper table” value was determined as 1.4. In addition, the “pSTAT5 ratio YT CD25/YT, dilution factor 32, upper table” value is 1.6; the “pSTAT5 ratio YT CD25/YT, dilution factor 64, upper table” value was 2.3; the “pSTAT5 ratio YT CD25/YT, dilution factor 128, upper table” value was 4.

Regarding B13, the “pSTAT5 ratio YT CD25/YT, dilution factor 2, upper table” value is 1.1; the “pSTAT5 ratio YT CD25/YT, dilution factor 4, upper table” value was 1.3; the “pSTAT5 ratio YT CD25/YT, dilution factor 8, upper table” value was found to be 1.8; the “pSTAT5 ratio YT CD25/YT, dilution factor 16, upper table” value worked out at 3.1. For the same molecule, the “pSTAT5 ratio YT CD25/YT, dilution factor 32, upper table” value is 5.8; the “pSTAT5 ratio YT CD25/YT, dilution factor 64, upper table” value turned out to be 8.3; the “pSTAT5 ratio YT CD25/YT, dilution factor 128, upper table” value was found to be 11.7.

For B14, the “pSTAT5 ratio YT CD25/YT, dilution factor 2, lower table” value was determined as 0.8; the “pSTAT5 ratio YT CD25/YT, dilution factor 4, lower table” value is 0.9; the “pSTAT5 ratio YT CD25/YT, dilution factor 8, lower table” value turned out to be 1; the “pSTAT5 ratio YT CD25/YT, dilution factor 16, lower table” value is 1.2. The “pSTAT5 ratio YT CD25/YT, dilution factor 32, lower table” value was found to be 1.5; the “pSTAT5 ratio YT CD25/YT, dilution factor 64, lower table” value turned out to be 2; the “pSTAT5 ratio YT CD25/YT, dilution factor 128, lower table” value stood at 3.4.
